Drawing on article PMC7374565, this text covers Kd for 2 substances.

For assay [1], the target named is full-length avian ANP32A (Gallus gallus) (Gallus gallus). Description: NMR titration.
The target in assay [2] is LRR of ANP32A alone (not stated (human and Gallus gallus ANP32A were used)). Description: NMR titration.

For orientation: Kd means the concentration at which binding is half-saturated. A low value points to tighter binding.

Turning to “627-NLS domains of PB2, E627 form (amino acids 538-759, avian H5N1 A/duck/Shantou/4610/2003) (domain or fragment)”, in assay [1], the Kd is over 3 mM.
In the case of “the 627 domain (E627 or K627 not stated) (domain or fragment)”, the Kd in assay [2] was over 1.5 mM.
